This note sets out measurements from the RNAGym collection of RNA variant scans (doi:10.7554/elife.80360).

B1: Hairpin Ribozyme (parent)
chain: GUCCUCUUUCACGUGCGCGUGAAAGAGAGAAGUGAACCAGAGAAACACACGUUGUGGUAUAUUACCUGGUA

In the data set the parent is B1. Description: self-cleavage, relative activity (ratio to wild type); higher = more cleavage; co-transcriptional.
GUCCUCUUUCACGUGCGCGUGAAAGAGAGAAGUGAACCAGAGCAACACACGUUGUGGUAUAUUCCCUGGUA: the self-cleavage amounted to 0.0846.

As to GUCCUCUUUCACGUGCGCGUGAAAGAGAGAAGUGAACCAGAGCAACACACGUUGUGGUAUAUUGCCUGGUA, the self-cleavage was determined as 0.185. Consider GUCCUCUUUCACGUGCGCGUGAAAGAGAGAAGUGAACCAGAGUAAUACACGUUGUGGUAUAUUACCUGGUA, for which the self-cleavage stood at 0.187. With GUCCUCUUUCACGUGCGCGUGAAAGAGAGAAGUGAACCAGAGUAACACACGUUGUGGUAUAUUACCUCGUA the figure was 0.106; with GUCCUCUUUCACGUGCGCGUGAAAGAGAGAAGUGAACCAGAGGAACACACGUUGUGGUAUAUUACCAGGUA, 0.125; with GUCCUCUUUCACGUGCGCGUGAAAGAGAGAAGUGAACCAGAGUAACAUACGUUGUGGUAUAUUACCUGGUA, 0.162. With GUCCUCUUUCACGUGCGCGUGAAAGAGAGAAGUGAACCAGAGUAACAGACGUUGUGGUAUAUUACCUGGUA the figure was 0.166; with GUCCUCUUUCACGUGCGCGUGAAAGAGAGAAGUGAACCAGAGGAUCACACGUUGUGGUAUAUUACCUGGUA, 0.0816. With GUCCUCUUUCACGUGCGCGUGAAAGAGAGAAGUGAACCAGAGGAACACACGUUGUGCUAUAUUACCUGGUA the figure was 0.195; with GUCCUCUUUCACGUGCGCGUGAAAGAGAGAAGUGAACCAGAGCAACACACGUUGUGUUAUAUUACCUGGUA, 0.149. On to GUCCUCUUUCACGUGCGCGUGAAAGAGAGAAGUGAACCAGAGACCCACACGUUGUGGUAUAUUACCUGGUA, for which the self-cleavage came to 0. With GUCCUCUUUCACGUGCGCGUGAAAGAGAGAAGUGAACCAGAGCAACACACGUUGUGGUAUAUUACCUGGUG the figure was 0.186; with GUCCUCUUUCACGUGCGCGUGAAAGAGAGAAGUGAACCAGAGUAACACACGUUGUGGUAUAUUACGUGGUA, 0.138. On to GUCCUCUUUCACGUGCGCGUGAAAGAGAGAAGUGAACCAGAGGCACACACGUUGUGGUAUAUUACCUGGUA, for which the self-cleavage worked out at 0.0882. With GUCCUCUUUCACGUGCGCGUGAAAGAGAGAAGUGAACCAGAGGAACACACGUUAUGGUAUAUUACCUGGUA the figure was 0.066; with GUCCUCUUUCACGUGCGCGUGAAAGAGAGAAGUGAACCAGAGUAACACAAGUUGUGGUAUAUUACCUGGUA, 0.0923. With GUCCUCUUUCACGUGCGCGUGAAAGAGAGAAGUGAACCAGAGUAACACGCGUUGUGGUAUAUUACCUGGUA the figure was 0.151; with GUCCUCUUUCACGUGCGCGUGAAAGAGAGAAGUGAACCAGAGCAACACAUGUUGUGGUAUAUUACCUGGUA, 0.13. With GUCCUCUUUCACGUGCGCGUGAAAGAGAGAAGUGAACCAGAGGAACACACGUUGUGGUAUAUUCCCUGGUA the figure was 0.191; with GUCCUCUUUCACGUGCGCGUGAAAGAGAGAAGUGAACCAGAGGAACACACUUUGUGGUAUAUUACCUGGUA, 0.245.

On to GUCCUCUUUCACGUGCGCGUGAAAGAGAGAAGUGAACCAGAGCAACACACGUUGUGGUAUAGUACCUGGUA, for which the self-cleavage was 0.257.

Consider GUCCUCUUUCACGUGCGCGUGAAAGAGAGAAGUGAACCAGAGCAACACACGUUGUGGUAUAUUACCUGGAA, for which the self-cleavage turned out to be 0.0723. In the case of GUCCUCUUUCACGUGCGCGUGAAAGAGAGAAGUGAACCAGAGUCACACACGUUGUGGUAUAUUACCUGGUA, the self-cleavage was determined as 0.157.

On to GUCCUCUUUCACGUGCGCGUGAAAGAGAGAAGUGAACCAGAGUUACACACGUUGUGGUAUAUUACCUGGUA, for which the self-cleavage came out at 0.141.

As for GUCCUCUUUCACGUGCGCGUGAAAGAGAGAAGUGAACCAGAGUAACACACGUUGUGGUAGAUUACCUGGUA, the self-cleavage was found to be 0.0802. With GUCCUCUUUCACGUGCGCGUGAAAGAGAGAAGUGAACCAGAGGAAUACACGUUGUGGUAUAUUACCUGGUA the figure was 0.0992; with GUCCUCUUUCACGUGCGCGUGAAAGAGAGAAGUGAACCAGAGGAACUCACGUUGUGGUAUAUUACCUGGUA, 0.131. With GUCCUCUUUCACGUGCGCGUGAAAGAGAGAAGUGAACCAGAGUAACACACGUUUUGGUAUAUUACCUGGUA the figure was 0.129; with GUCCUCUUUCACGUGCGCGUGAAAGAGAGAAGUGAACCAGAGUAACACACGUUGUGGUAUAGUACCUGGUA, 0.0478; with GUCCUCUUUCACGUGCGCGUGAAAGAGAGAAGUGAACCAGAGUAACACACGUUGUGGUAUAAUACCUGGUA, 0.227. With GUCCUCUUUCACGUGCGCGUGAAAGAGAGAAGUGAACCAGAGUAACACACGUUGUGGUAUACUACCUGGUA the figure was 0.107.

Regarding GUCCUCUUUCACGUGCGCGUGAAAGAGAGAAGUGAACCAGAGGAACACACGUUGUGGUAUGUUACCUGGUA, the self-cleavage stood at 0.188. With GUCCUCUUUCACGUGCGCGUGAAAGAGAGAAGUGAACCAGAGGAACACACGUUGUGGUAUUUUACCUGGUA the figure was 0.169. In the case of GUCCUCUUUCACGUGCGCGUGAAAGAGAGAAGUGAACCAGAGCAACACACGUUGUGGUACAUUACCUGGUA, the self-cleavage worked out at 0.196. With GUCCUCUUUCACGUGCGCGUGAAAGAGAGAAGUGAACCAGAGGAACACACGUUGCGGUAUAUUACCUGGUA the figure was 0.201; with GUCCUCUUUCACGUGCGCGUGAAAGAGAGAAGUGAACCAGAGGAACACACGUUGAGGUAUAUUACCUGGUA, 0.0267.

With GUCCUCUUUCACGUGCGCGUGAAAGAGAGAAGUGAACCAGAGCAACACACGUUGUGGUAUAUGACCUGGUA, the self-cleavage worked out at 0.117. With GUCCUCUUUCACGUGCGCGUGAAAGAGAGAAGUGAACCAGAGACACCCACGUUGUGGUAUAUUACCUGGUA the figure was 0.121.
